Experiment: clinical
Settings: human, Relative radiotracer uptake
From the text: The primary objective was to characterize preliminary targeting properties of [68Ga] NeoB in patients with malignancies known to overexpress GRPR. The primary efficacy endpoints were: • Number and location of tumor lesions detected by [68Ga]-NeoBOMB1 overall and for each tumor type • Calculation of the ratio tumor/background standard uptake value (SUV) and %injected dose per gram of tissue (ID/g) and calculation of absorbed dose (mGy/MBq) in tumor overall and for each tumor type.
Accordingly, highest relative tracer uptake following administration of a bombesin antagonist is expected in pancreas, kidney, and liver (Roivainen et al, 2013).

CC(C)CC(CC(C)C)NC(=O)[C@H](Cc1cnc[nH]1)NC(=O)CNC(=O)[C@@H](NC(=O)[C@H](C)NC(=O)[C@H](Cc1c[nH]c2ccccc12)NC(=O)[C@H](CCC(N)=O)NC(=O)[C@@H](Cc1ccccc1)NC(=O)COCC(=O)Nc1ccc(CNC(=O)CN2CCN(CC(=O)O)CCN(CC(=O)O)CCN(CC(=O)O)CC2)cc1)C(C)C [[68Ga]-NeoB, metal not drawn]
tissue uptake at 0.25 h (Liver, patient FR01-008, 15 min/38.6 min actual): 0.00794 %ID/g | tissue uptake at 0.25 h (alveolar-interstitial (lungs), total radioactivity, patient FR01-009, 15 min/17.8 min actual): 0.00124 %ID/g | tissue uptake at 1 h (alveolar-interstitial (lungs), total radioactivity, patient FR01-009, 60 min/60.7 min actual): 0.000884 %ID/g | tissue uptake at 2 h (alveolar-interstitial (lungs), total radioactivity, patient FR01-009, 120 min/123.9 min actual): 0.000591 %ID/g | tissue uptake at 4 h (alveolar-interstitial (lungs), total radioactivity, patient FR01-009, 240 min/207.9 min actual): 0.000386 %ID/g | tissue uptake at 0.25 h (heart wall, total radioactivity, patient FR01-009, 15 min/17.8 min actual): 0.0034 %ID/g | tissue uptake at 1 h (heart wall, total radioactivity, patient FR01-009, 60 min/60.7 min actual): 0.00207 %ID/g | tissue uptake at 2 h (heart wall, total radioactivity, patient FR01-009, 120 min/123.9 min actual): 0.00142 %ID/g | tissue uptake at 4 h (heart wall, total radioactivity, patient FR01-009, 240 min/207.9 min actual): 0.000928 %ID/g | tissue uptake at 0.25 h (kidneys, total radioactivity, patient FR01-009, 15 min/17.8 min actual): 0.0048 %ID/g | tissue uptake at 1 h (kidneys, total radioactivity, patient FR01-009, 60 min/60.7 min actual): 0.0038 %ID/g | tissue uptake at 2 h (kidneys, total radioactivity, patient FR01-009, 120 min/123.9 min actual): 0.00505 %ID/g | tissue uptake at 4 h (kidneys, total radioactivity, patient FR01-009, 240 min/207.9 min actual): 0.00278 %ID/g | tissue uptake at 1 h (liver, total radioactivity, patient FR01-008, 60 min/62.6 min actual): 0.00296 %ID/g | tissue uptake at 2 h (liver, total radioactivity, patient FR01-008, 120 min/123.2 min actual): 0.00197 %ID/g | tissue uptake at 4 h (liver, total radioactivity, patient FR01-008, 240 min/221.1 min actual): 0.00162 %ID/g | tissue uptake at 0.25 h (liver, total radioactivity, patient FR01-009, 15 min/17.8 min actual): 0.00866 %ID/g | tissue uptake at 1 h (liver, total radioactivity, patient FR01-009, 60 min/60.7 min actual): 0.00564 %ID/g | tissue uptake at 2 h (liver, total radioactivity, patient FR01-009, 120 min/123.9 min actual): 0.00428 %ID/g | tissue uptake at 4 h (liver, total radioactivity, patient FR01-009, 240 min/207.9 min actual): 0.00317 %ID/g | tissue uptake at 0.25 h (pancreas, total radioactivity, patient FR01-008, 15 min/38.6 min actual): 0.0471 %ID/g | tissue uptake at 1 h (pancreas, total radioactivity, patient FR01-008, 60 min/62.6 min actual): 0.0484 %ID/g | tissue uptake at 2 h (pancreas, total radioactivity, patient FR01-008, 120 min/123.2 min actual): 0.0545 %ID/g | tissue uptake at 4 h (pancreas, total radioactivity, patient FR01-008, 240 min/221.1 min actual): 0.0628 %ID/g | tissue uptake at 0.25 h (pancreas, total radioactivity, patient FR01-009, 15 min/17.8 min actual): 0.0215 %ID/g | tissue uptake at 1 h (pancreas, total radioactivity, patient FR01-009, 60 min/60.7 min actual): 0.0291 %ID/g | tissue uptake at 2 h (pancreas, total radioactivity, patient FR01-009, 120 min/123.9 min actual): 0.0345 %ID/g | tissue uptake at 4 h (pancreas, total radioactivity, patient FR01-009, 240 min/207.9 min actual): 0.0374 %ID/g | tissue uptake at 0.25 h (red (active) marrow, total radioactivity, patient FR01-008, 15 min/38.6 min actual): 0.00331 %ID/g | tissue uptake at 1 h (red (active) marrow, total radioactivity, patient FR01-008, 60 min/62.6 min actual): 0.00116 %ID/g | tissue uptake at 2 h (red (active) marrow, total radioactivity, patient FR01-008, 120 min/123.2 min actual): 0.000916 %ID/g | tissue uptake at 4 h (red (active) marrow, total radioactivity, patient FR01-008, 240 min/221.1 min actual): 0.000346 %ID/g | tissue uptake at 0.25 h (red (active) marrow, total radioactivity, patient FR01-009, 15 min/17.8 min actual): 0.00186 %ID/g | tissue uptake at 1 h (red (active) marrow, total radioactivity, patient FR01-009, 60 min/60.7 min actual): 0.00136 %ID/g | tissue uptake at 2 h (red (active) marrow, total radioactivity, patient FR01-009, 120 min/123.9 min actual): 0.000998 %ID/g | tissue uptake at 4 h (red (active) marrow, total radioactivity, patient FR01-009, 240 min/207.9 min actual): 0.000722 %ID/g | tissue uptake at 0.25 h (spleen, total radioactivity, patient FR01-008, 15 min/38.6 min actual): 0.00409 %ID/g | tissue uptake at 1 h (spleen, total radioactivity, patient FR01-008, 60 min/62.6 min actual): 0.00211 %ID/g | tissue uptake at 2 h (spleen, total radioactivity, patient FR01-008, 120 min/123.2 min actual): 0.00141 %ID/g | tissue uptake at 0.25 h (spleen, total radioactivity, patient FR01-009, 15 min/17.8 min actual): 0.00338 %ID/g | tissue uptake at 1 h (spleen, total radioactivity, patient FR01-009, 60 min/60.7 min actual): 0.00256 %ID/g | tissue uptake at 2 h (spleen, total radioactivity, patient FR01-009, 120 min/123.9 min actual): 0.00191 %ID/g | tissue uptake at 4 h (spleen, total radioactivity, patient FR01-009, 240 min/207.9 min actual): 0.00145 %ID/g | tissue uptake at 0.25 h (tumor lesion T1-lungL, total radioactivity, patient FR01-009, 15 min/17.8 min actual): 0.00367 %ID/g | tissue uptake at 1 h (tumor lesion T1-lungL, total radioactivity, patient FR01-009, 60 min/60.7 min actual): 0.00455 %ID/g | tissue uptake at 2 h (tumor lesion T1-lungL, total radioactivity, patient FR01-009, 120 min/123.9 min actual): 0.00481 %ID/g | tissue uptake at 4 h (tumor lesion T1-lungL, total radioactivity, patient FR01-009, 240 min/207.9 min actual): 0.00385 %ID/g | tissue uptake at 0.25 h (tumor lesion T2-lungR, total radioactivity, patient FR01-009, 15 min/17.8 min actual): 0.00466 %ID/g | tissue uptake at 1 h (tumor lesion T2-lungR, total radioactivity, patient FR01-009, 60 min/60.7 min actual): 0.00463 %ID/g | tissue uptake at 2 h (tumor lesion T2-lungR, total radioactivity, patient FR01-009, 120 min/123.9 min actual): 0.00377 %ID/g | tissue uptake at 4 h (tumor lesion T2-lungR, total radioactivity, patient FR01-009, 240 min/207.9 min actual): 0.00248 %ID/g | tissue uptake at 0.25 h (tumor lesion T3-liverL, total radioactivity, patient FR01-009, 15 min/17.8 min actual): 0.0135 %ID/g | tissue uptake at 1 h (tumor lesion T3-liverL, total radioactivity, patient FR01-009, 60 min/60.7 min actual): 0.018 %ID/g | tissue uptake at 2 h (tumor lesion T3-liverL, total radioactivity, patient FR01-009, 120 min/123.9 min actual): 0.00984 %ID/g | tissue uptake at 4 h (tumor lesion T3-liverL, total radioactivity, patient FR01-009, 240 min/207.9 min actual): 0.0178 %ID/g | tissue uptake at 0.25 h (tumor lesion T4-liverR1, total radioactivity, patient FR01-009, tumor lesion T4-liverR1, 15 min/17.8 min actual): 0.013 %ID/g

— US20230321287A1, “RADIOLABELLED GRPR-ANTAGONIST FOR USE AS THERAGNOSTIC” (NOVARTIS AG, priority 2019, published 2023)
